Laboratory results: paper PMC7346273 (ACS Omega, 2020)

Molecular target: Aβ42 monomer (UniProt P05067 672-713)
Assay: NMR titration

Chain of Aβ42 monomer (P05067 672-713): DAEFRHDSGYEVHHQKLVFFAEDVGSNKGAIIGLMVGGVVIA

B1: P_(active) (peptide)
peptide: GFLLHQK
B1: binds.
